The results in this text go back to patent US20150166668A1 (PROMIS NEUROSCIENCES, published 2015).

Usually EC50 stands for the concentration giving half of the maximal effect.

In assay [1] the target is PrP on the surface of normal cells (human) (UniProt P04156). The experiment in a line: flow cytometry on HOEpiC Donor 1 normal ovarian epithelium. A general note: A flow cytometer gives signals particle by particle.
Assay [2] has the same target.
For assay [3] the target is unchanged. Nature of the assay: flow cytometry on HOEpiC Donor 2 normal ovarian epithelium.
For assay [4] the target is unchanged. Nature of the assay: flow cytometry on HOEpiC Donor 3 normal ovarian epithelium.
Another assay addresses T1, BSA-DSE3 peptide (human).
T1 construct: also called immunogen peptides; specific peptide
Nature of the assay: ELISA, plate coated with BSA-peptide. For orientation: In an ELISA, binding on a coated surface is turned into a signal by an enzyme label.

Regarding Anti-PrP 6H4 antibody, the values for the Ave S/N in assay [1], in assay [3] and in assay [4] were 8.31, 14.2 and 15.1, respectively. This molecule also had an EC50 in assay [2] of 17 nM.

B1: DSE3 ab120 (antibody, V domains shown)
VH: QSVEESGGHLVTPGTPLTLTCTVSGIDLSTYAMGWVRQAPGKGLEWIGVITKSGNTYYASWAKGRFAISKTSTTVDLKITSPTTEDTATYFCGRYGIGVSYYDIWGPGTLVTVSS
VL: AQVLTQTPSPVSAAVGGTVTINCQSSQSLYNKNWLSWYQKKPGQPPKLLIYKASTLESGVSSRFKGSGSGTQFTLTISGVQCDDAATYYCQGEFSCSSADCTAFGGGTEVVVKG
As for B1, the EC50 with BSA-DSE3 peptide is 0.0655 nM.
